Drawing on patent publication US20220267407A1 (published 2022), this text covers binding result and EC50 of peptide for six molecules.

For assay [1], the target named is T1, EBNA3C (EBV) peptide on HLA-C*06:02 (human).
T1 peptide: RRYRRIYDL
The experiment in a line: cytokine release.

The target of assay [2] is T2, EBNA3C (EBV) peptide on HLA-C*06:02 (human).
T2 peptide: AREAEVRFL
The assay can be described thus: cytokine release.

The target in assay [3] is T3, EBNA3C (EBV) peptide on HLA-C*06:02 (human).
T3 peptide: LRGKWQRRY
The assay can be described thus: cytokine release.

For assay [4], the target named is T4, EBNA3C (EBV) peptide on HLA-C*06:02 (human).
T4 peptide: ERYAREAEV
The assay can be described thus: cytokine release.

Assay [5] has as its target T5, EBNA3C (EBV) peptide on HLA-C*06:02 (human).
T5 peptide: SRRRRGACV
The assay can be described thus: cytokine release.

Assay [6] addresses T6, EBNA3C (EBV) peptide on HLA-C*06:02 (human).
T6 peptide: NLLDFVRFM
The experiment in a line: cytokine release.

For assay [7], the target named is T7, EBNA3C (EBV) peptide on HLA-C*06:02 (human).
T7 peptide: RRRRGACVV
The assay can be described thus: cytokine release.

In assay [8] the target is T8, EBNA3C (EBV) peptide on HLA-C*06:02 (human).
T8 peptide: VRFLRGKWQ
The assay can be described thus: cytokine release.

The target in assay [9] is T9, EBNA3C (EBV) peptide on HLA-C*06:02 (human).
T9 peptide: RRRGACVVY
The assay can be described thus: cytokine release.

In assay [10] the target is T10, EBNA3C (EBV) peptide on HLA-C*06:02 (human).
T10 peptide: QRRYRRIYD
The experiment in a line: cytokine release.

The target in assay [11] is T11, EBNA3C (EBV) peptide on HLA-C*06:02 (human).
T11 peptide: VRFMGVMSS
The experiment in a line: cytokine release.

In assay [12] the target is T12, EBNA3C (EBV) peptide on HLA-C*06:02 (human).
T12 peptide: YAREAEVRFL
The assay can be described thus: cytokine release.

The target of assay [13] is T13, EBNA3C (EBV) peptide on HLA-C*06:02 (human).
T13 peptide: NRVGADSIM
The assay can be described thus: cytokine release.

The target of assay [14] is T14, EBNA3C (EBV) peptide on HLA-C*06:02 (human).
T14 peptide: LHHIWQNLL
The experiment in a line: cytokine release.

Assay [15] concerns the target T15, EBNA3C (EBV) peptide on HLA-C*06:02 (human).
T15 peptide: RRGIKEHVI
The experiment in a line: cytokine release.

In assay [16] the target is T16, EBNA3C (EBV) peptide on HLA-C*06:02 (human).
T16 peptide: YRRIYDLIE
The assay can be described thus: cytokine release.

The target in assay [17] is T17, EBNA3C (EBV) peptide on HLA-C*06:02 (human).
T17 peptide: RRYRRIYDLI
The assay can be described thus: cytokine release.

The target of assay [18] is T18, EBNA3C (EBV) peptide on HLA-C*06:02 (human).
T18 peptide: ARRGIKEHV
The assay can be described thus: cytokine release.

The target in assay [19] is T19, EBNA3C (EBV) peptide on HLA-C*06:02 (human).
T19 peptide: QRRYRRIYDL
The experiment in a line: cytokine release.

Assay [20] addresses T20, EBNA3C (EBV) peptide on HLA-C*06:02 (human).
T20 peptide: WQRRYRRIY
The assay can be described thus: cytokine release.

In assay [21] the target is T21, EBNA3C (EBV) peptide on HLA-C*06:02 (human).
T21 peptide: FLRGKWQRRY
The experiment in a line: cytokine release.

Assay [22] addresses T22, EBNA3C (EBV) peptide on HLA-C*06:02 (human).
T22 peptide: RRGACVVYD
The assay can be described thus: cytokine release.

In assay [23] the target is T23, EBNA3C (EBV) peptide on HLA-C*06:02 (human).
T23 peptide: VYDDDVIEV
The experiment in a line: cytokine release.

Assay [24] concerns the target T24, EBNA3C (EBV) peptide on HLA-C*06:02 (human).
T24 peptide: YAREAEVRF
The experiment in a line: cytokine release.

The target of assay [25] is T25, EBNA3C (EBV) peptide on HLA-C*06:02 (human).
T25 peptide: GCQNAARTL
The assay can be described thus: cytokine release.

Assay [26] addresses T26, LMP1 (EBV) peptide on HLA-C*15:02 (human).
T26 peptide: NSNEGRHHL
The assay can be described thus: cytokine release.

For assay [27], the target named is T27, LMP1 (EBV) peptide on HLA-C*15:02 (human).
T27 peptide: DSLPHPQQA
The assay can be described thus: cytokine release.

Assay [28] concerns the target T28, LMP1 (EBV) peptide on HLA-C*15:02 (human).
T28 peptide: YLQQNWWTL
The experiment in a line: cytokine release.

The target of assay [29] is T29, LMP1 (EBV) peptide on HLA-C*15:02 (human).
T29 peptide: QQNWWTLLV
The assay can be described thus: half-maximum IFN-gamma release; peptide titration on K562-HLA-C*15:02, ELISA after 24 h, E:T 1:1; full-length, on cells. (An ELISA detects its analyte on a solid surface through an enzyme-linked reagent.)

Assay [30] concerns the target T30, LMP1 (EBV) peptide on HLA-B*57:01 (human).
T30 peptide: WTLLVDLLW
The assay can be described thus: cytokine release.

Assay [31] deals with T31, LMP1 (EBV) peptide on HLA-B*57:01 (human).
T31 peptide: IALYLQQNWW
The experiment in a line: cytokine release.

For assay [32], the target named is T32, LMP1 (EBV) peptide on HLA-B*57:01 (human).
T32 peptide: WWTLLVDLLW
The experiment in a line: cytokine release.

In assay [33] the target is T33, LMP1 (EBV) peptide on HLA-B*57:01 (human).
T33 peptide: IIALYLQQNW
The experiment in a line: cytokine release.

Assay [34] has as its target T34, LMP1 (EBV) peptide on HLA-B*57:01 (human).
T34 peptide: WTLLVDLLWL
The experiment in a line: cytokine release.

The target in assay [35] is T35, LMP1 (EBV) peptide on HLA-B*57:01 (human).
T35 peptide: LAILIWMYY
The experiment in a line: cytokine release.

Assay [36] addresses T36, LMP1 (EBV) peptide on HLA-B*57:01 (human).
T36 peptide: LLFLAILIW
The experiment in a line: cytokine release.

The target of assay [37] is T37, LMP1 (EBV) peptide on HLA-B*57:01 (human).
T37 peptide: LLLFLAILIW
The experiment in a line: cytokine release.

In assay [38] the target is T38, LMP1 (EBV) peptide on HLA-B*57:01 (human).
T38 peptide: LAILIWMYYH
The assay can be described thus: cytokine release.

The target of assay [39] is T39, LMP1 (EBV) peptide on HLA-B*57:01 (human).
T39 peptide: ALYLQQNWW
The assay can be described thus: cytokine release.

The target of assay [40] is T40, LMP1 (EBV) peptide on HLA-B*57:01 (human).
T40 peptide: FLAILIWMYY
The experiment in a line: cytokine release.

For assay [41], the target named is T41, LMP1 (EBV) peptide on HLA-B*57:01 (human).
T41 peptide: NSNEGRHHL
The assay can be described thus: cytokine release.

In assay [42] the target is T42, LMP1 (EBV) peptide on HLA-B*57:01 (human).
T42 peptide: IALYLQQNW
The experiment in a line: half-maximum IFN-gamma release; peptide titration on K562-HLA-B*57:01, ELISA after 24 h, E:T 1:1; full-length, on cells.

Assay [43] concerns the target T43, EBNA3C (EBV) peptide on HLA-B*44:02 (human).
T43 peptide: SERLVPEESY
The experiment in a line: cytokine release.

For assay [44], the target named is T44, EBNA3C (EBV) peptide on HLA-B*44:02 (human).
T44 peptide: WLLTSPSQSW
The experiment in a line: cytokine release.

Assay [45] addresses T45, EBNA3C (EBV) peptide on HLA-B*44:02 (human).
T45 peptide: LLTSPSQSW
The experiment in a line: cytokine release.

Assay [46] addresses T46, EBNA3C (EBV) peptide on HLA-B*44:02 (human).
T46 peptide: AEGGVGWRHW
The experiment in a line: half-maximum IFN-gamma release; peptide titration on K562-HLA-B*44:02, ELISA after 24 h, E:T 1:1; full-length, on cells.

For assay [47], the target named is T47, LMP2A (EBV) peptide on HLA-A*02:01 (human).
T47 peptide: MCLGGLLTMV
The experiment in a line: cytokine release.

Assay [48] deals with T48, LMP2A (EBV) peptide on HLA-A*02:01 (human).
T48 peptide: CLGGLLTMV
The experiment in a line: half-maximum IFN-gamma release; peptide titration on K562-HLA-A*02:01, ELISA after 24 h, E:T 1:1; full-length, on cells.

The target of assay [49] is T48, LMP2A (EBV) peptide on HLA-A*02:01. The experiment in a line: the description's statement of this TCR's peptide sensitivity; K562-HLA-A*02:01 loaded with peptide, E:T 1:1; full-length, on cells.

B1: TCR64 (TCR, V domains shown)
Valpha: TQLLEQSPQFLSIQEGENLTVYCNSSSVFSSLQWYRQEPGEGPVLLVTVVTGGEVKKLKRLTFQFGDARKDSSLHITAAQPGDTGLYLCAGDVDTGTASKLTFGTGTRLQVTL
Vbeta: DVKVTQSSRYLVKRTGEKVFLECVQDMDHENMFWYRQDPGLGLRLIYFSYDVKMKEKGDIPEGYSVSREKKERFSLILESASTNQTSMYLCASSLLGSGALYEQYFGPGTRLTVT
Regarding B1, the binding result in [1], in assay [2], in assay [3], in assay [4], in [5] and in assay [6] was “no recognition” throughout. The binding result in [7], in assay [8], in assay [9], in assay [10], in assay [11] and in assay [12] was “no recognition” throughout. Also, the binding result in [13], in assay [14], in [15], in [16], in assay [17] and in assay [18] was “no recognition” throughout. Besides, the binding result in assay [19], in assay [20], in [21], in assay [22], in assay [23] and in [24] was “no recognition” each time. In addition, in [25], the binding result was “no recognition”.

B2: TCR83 (TCR, V domains shown)
Valpha: GQNIDQPTEMTATEGAIVQINCTYQTSGFNGLFWYQQHAGEAPTFLSYNVLDGLEEKGRFSSFLSRSKGYSYLLLKELQMKDSASYLCAAVNNAGNMLTFGGGTRLMVKP
Vbeta: DTAVSQTPKYLVTQMGNDKSIKCEQNLGHDTMYWYKQDSKKFLKIMFSYNNKELIINETVPNRFSPKSPDKAHLNLHINSLELGDSAVYFCASSQGYGGPSTDTQYFGPGTRLTVL
Take B2: the binding result in [26], in assay [27] and in [28] was “no recognition” throughout. Also, in assay [29], the EC50 of peptide was determined as 2 nM.

B3: TCR50 (TCR, V domains shown)
Valpha: AQSVTQLDSHVSVSEGTPVLLRCNYSSSYSPSLFWYVQHPNKGLQLLLKYTSAATLVKGINGFEAEFKKSETSFHLTKPSAHMSDAAEYFCVVMATGFQKLVFGTGTRLLVSP
Vbeta: DSGVTQTPKHLITATGQRVTLRCSPRSGDLSVYWYQQSLDQGLQFLIQYYNGEERAKGNILERFSAQQFPDLHSELNLSSLELGDSALYFCASSVTSGSDEQFFGPGTRLTVL
Regarding B3, the binding result is recorded as “no recognition” in [30]; “recognises” in assay [31]; “no recognition” in assay [32]; “recognises” in [33]; “no recognition” in assay [34]; “no recognition” in assay [35]. In addition, the binding result in [36] was “no recognition”; in assay [37], “no recognition”; in assay [38], “no recognition”; in [39], “recognises”; in assay [40], “no recognition”; in assay [41] it was “no recognition”. The molecule further showed an EC50 of peptide in [42] of 30 nM.

B4: TCR25 (TCR, V domains shown)
Valpha: AQSVTQLDSHVSVSEGTPVLLRCNYSSSYSPSLFWYVQHPNKGLQLLLKYTSAATLVKGINGFEAEFKKSETSFHLTKPSAHMSDAAEYFCVAWDTGFQKLVFGTGTRLLVSP
Vbeta: EPEVTQTPSHQVTQMGQEVILRCVPISNHLYFYWYRQILGQKVEFLVSFYNNEISEKSEIFDDQFSVERPDGSNFTLKIRSTKLEDSAMYFCASKALADTQYFGPGTRLTVL
Turning to B4, the binding result in assay [43], in assay [44] and in assay [45] was “no recognition” in each case. The molecule also displayed an EC50 of peptide in assay [46] of 600 nM.

B5: TCR58 (TCR, V domains shown)
Valpha: RKEVEQDPGPFNVPEGATVAFNCTYSNSASQSFFWYRQDCRKEPKLLMSVYSSGNEDGRFTAQLNRASQYISLLIRDSKLSDSATYLCVASGDSSYKLIFGSGTRLLVRP
Vbeta: EPEVTQTPSHQVTQMGQEVILRCVPISNHLYFYWYRQILGQKVEFLVSFYNNEISEKSEIFDDQFSVERPDGSNFTLKIRSTKLEDSAMYFCASSDPLSTYNEQFFGPGTRLTVL
Turning to B5, the binding result in assay [43], in [44] and in assay [45] was “no recognition” in each case. This molecule also came in with an EC50 of peptide in assay [46] of 300 nM.

B6: TCR06 (TCR, V domains shown)
Valpha: KQEVTQIPAALSVPEGENLVLNCSFTDSAIYNLQWFRQDPGKGLTSLLLIQSSQREQTSGRLNASLDKSSGRSTLYIAASQPGDSATYLCAVLMDSNYQLIWGAGTKLIIKP
Vbeta: DAGITQSPRYKITETGRQVTLMCHQTWSHSYMFWYRQDLGHGLRLIYYSAAADITDKGEVPDGYVVSRSKTENFPLTLESATRSQTSVYFCASSEDGMNTEAFFGQGTRLTVV
On to B6, for which the binding result in [47] was “recognises”. Further, the EC50 of peptide in [48] was 6 nM; in [49], at most 10 nM.
